Test results reported in article PMC11834443, “Allosteric regulation of pyruvate kinase enables efficient and robust gluconeogenesis by preventing metabolic conflicts and carbon overflow” (mSystems, 2025).

Tests used:
[1] = molecular target: T1, wild-type full length pyruvate kinase (WT Pyk) (Bacillus subtilis, UniProt P80885); type: biochemical
[2] = molecular target: T1, wild-type full length pyruvate kinase (WT Pyk); experiment: LDH-coupled assay, NADH absorbance at […] nm; type: biochemical
[3] = molecular target: T1, wild-type full length pyruvate kinase (WT Pyk); experiment: LDH-coupled assay, fit to nonessential activation equation; type: biochemical
purified protein = substrate: Nc1ncnc2c1ncn2[C@@H]1O[C@H](COP(=O)(O)OP(=O)(O)O)[C@@H](O)[C@H]1O; experiment: purified protein; conditions: pH 7.5
[4] = molecular target: the molecule itself; experiment: SEC; 100 µL of 100 µM protein on Superdex200 26/60; 20 mM Tris-Cl pH 7.5, 300 mM NaCl, 1 mM EDTA, 1 mM DTT, 10% glycerol; 3 mL/min, 4°C; mass from a standard curve of partition coefficients

Row | Molecule | Km (purified protein) [µM] | stoichiometry N [4] | also measured
1 | Nc1ncnc2c1ncn2[C@@H]1O[C@H](COP(=O)(O)O)[C@@H](O)[C@H]1O [AMP] | – | – | LDH-coupled assay, NADH absorbance at 340 nm [1]: wild-type B. subtilis pyruvate kinase was activated by AMP or R5P (Fig. S3a)
2 | Nc1ncnc2c1ncn2[C@@H]1O[C@H](COP(=O)(O)OP(=O)(O)OP(=O)(O)O)[C@@H](O)[C@H]1O [ATP] | – | – | Ki [2]: 520 ± 50 µM
3 | O=P(O)(O)OC[C@H]1OC(O)[C@H](O)[C@@H]1O (stereo partly shown) [R5P] | – | – | Kd [3]: 570 ± 40 µM
4 | Bacillus subtilis pyruvate kinase, wild-type full length (enzyme, B. subtilis, UniProt P80885 1-585, looked up, This looks larger than the untagged protein, although the methods say the His tag was removed with TEV protease; also called WT Pyk; WT; source: E. coli BL21 (DE3), purified (HisTrap FF, TEV digestion, size-exclusion chromatography); not shown: His6, N-terminal, cleaved) MRKTKIVCTIGPASESIEMLTKLMESGMNVARLNFSHGDFEEHGARIKNIREASKKLGKNVGILLDTKGPEIRTHTMENGGIELETGKELIISMDEVVGTTDKISVTYEGLVHDVEQGSTILLDDGLIGLEVLDVDAAKREIKTKVLNNGTLKNKKGVNVPGVSVNLPGITEKDARDIVFGIEQGVDFIAPSFIRRSTDVLEIRELLEEHNAQDIQIIPKIENQEGVDNIDAILEVSDGLMVARGDLGVEIPAEEVPLVQKELIKKCNALGKPVITATQMLDSMQRNPRPTRAEASDVANAIFDGTDAIMLSGETAAGSYPVEAVQTMHNIASRSEEALNYKEILSKRRDQVGMTITDAIGQSVAHTAINLNAAAIVTPTESGHTARMIAKYRPQAPIVAVTVNDSISRKLALVSGVFAESGQNASSTDEMLEDAVQKSLNSGIVKHGDLIVITAGTVGESGTTNLMKVHTVGDIIAKGQGIGRKSAYGPVVVAQNAKEAEQKMTDGAVLVTKSTDRDMIASLEKASALITEEGGLTSHAAVVGLSLGIPVIVGLENATSILTDGQDITVDASRGAVYQGRASVL | 1010 ± 30 | 4 | –
5 | Bacillus subtilis pyruvate kinase lacking the extra C-terminal domain (residues 1-474) (domain or fragment, B. subtilis, UniProt P80885 1-474, looked up, pyruvate kinase (Pyk) of Bacillus subtilis, N-terminal residues 1-474, without the extra C-terminal domain (ECTD); in pLIC-trPC-HA (plasmid pJW724); This looks larger than untagged residues 1-474, although the methods say the His tag was removed with TEV protease; also called PykΔECTD; ΔECTD pyruvate kinase; source: E. coli BL21 (DE3), purified (HisTrap FF, TEV digestion, size-exclusion …)) MRKTKIVCTIGPASESIEMLTKLMESGMNVARLNFSHGDFEEHGARIKNIREASKKLGKNVGILLDTKGPEIRTHTMENGGIELETGKELIISMDEVVGTTDKISVTYEGLVHDVEQGSTILLDDGLIGLEVLDVDAAKREIKTKVLNNGTLKNKKGVNVPGVSVNLPGITEKDARDIVFGIEQGVDFIAPSFIRRSTDVLEIRELLEEHNAQDIQIIPKIENQEGVDNIDAILEVSDGLMVARGDLGVEIPAEEVPLVQKELIKKCNALGKPVITATQMLDSMQRNPRPTRAEASDVANAIFDGTDAIMLSGETAAGSYPVEAVQTMHNIASRSEEALNYKEILSKRRDQVGMTITDAIGQSVAHTAINLNAAAIVTPTESGHTARMIAKYRPQAPIVAVTVNDSISRKLALVSGVFAESGQNASSTDEMLEDAVQKSLNSGIVKHGDLIVITAGTVGESGTTNLMKVHTVGD | 1830 ± 240 | 4 | –
